Results on 1 molecule are retold here after patent publication CN111320688A.

Assay [1] has as its target 黄病毒属中的登革病毒、寨卡病毒、西尼罗河病毒和黄热病毒的E蛋白.
The target of assay [2] is 登革病毒1-4型、西尼罗河病毒和黄热病毒 (病毒颗粒表面E蛋白). Briefly: cell-based or functional assay.

B1: TIB12抗体 (antibody, V domains shown)
VH: EVQLLESGGGLVQPGGSLRLSCAASGFTFSSQVMSWVRQAPGRGLEWVSVIHTGGSSTYYADSVKGRFTISRDNSKNTVFLHMNSLRVEDTALYYCAKGSAYGDYVEY
VL: QSVLTQPPSVSGAPGQRVTISCTGSSSNIGAGYDVHWYQQPPGTAPKLLIYGNNNRPSGVPDRFSGSKSGTSASLAITGLQAEDEADYYCQSYDSSLSGGV
A word on the Kd: it is the equilibrium constant for the complex coming apart. Low values mean tighter binding, high ones weaker binding. In assay [1], B1 came in with a Kd of 0.13 to 0.85 nM. In assay [2], the IC50 (中和能力; Vero细胞感染, 流式检测) was in the range of 0.04 to 1.31 µg/mL.
